How the values were obtained:
[1] = target: human TNFR2 on cells (human) (UniProt P20333); test: cell-based or functional assay
[2] = target: monomeric human TNFR2 extracellular domain (human) (UniProt P20333); test: BLI (Octet Red 96), Human TNFR2 Kd (1-1)

Chain of human TNFR2 on cells (human) (P20333 23-461): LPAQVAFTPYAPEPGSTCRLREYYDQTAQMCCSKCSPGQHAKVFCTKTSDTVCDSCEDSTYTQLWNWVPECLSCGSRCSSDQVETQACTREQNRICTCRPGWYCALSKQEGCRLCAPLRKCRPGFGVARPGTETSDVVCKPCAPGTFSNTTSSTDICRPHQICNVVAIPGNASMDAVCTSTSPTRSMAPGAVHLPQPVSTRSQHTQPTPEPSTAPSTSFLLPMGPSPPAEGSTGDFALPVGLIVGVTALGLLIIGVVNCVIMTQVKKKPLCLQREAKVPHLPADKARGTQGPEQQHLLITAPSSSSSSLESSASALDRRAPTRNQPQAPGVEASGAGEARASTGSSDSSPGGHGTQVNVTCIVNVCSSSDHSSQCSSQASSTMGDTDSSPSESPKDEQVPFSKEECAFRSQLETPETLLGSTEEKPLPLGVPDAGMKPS

Row | IC50 (µg/mL) (with pre-incubation); rescue of Jurkat H6 cells from 2 ng/mL TNFα, luminescence [1] | IC50 (µg/mL) (without pre-incubation); rescue of Jurkat H6 cells from 2 ng/mL TNFα, luminescence [1] | Kd [2] [nM] | Binder
1 | 0.09 | 0.1 |  | SBT-004 (antibody, V domains shown) VH: EVQLQQSGPEVGRPGSSVKISCKASGYTFTDYIMHWVKQSPGQGLEWIGWVDPEYGSTDYAEKFKKKATLTADTSSNTAYIQLSSLTSEDTATYFCARDDGSYSPFDYWGQGVMVTVSS VL: DIQMTQSPPSLSASLGDKVTITCQASQNINKYIAWYQQKPGKAPRLLIRYTSTLESGTPSRFSGSGSGRDYSFSISNVESEDIASYYCLQYVNLLTFGAGTKLEIK
2 |  |  | 5 | chimeric SBT-004 Fc null (antibody, part only; not given: light chain and Fc null constant region, V domains shown, part only) VH: EVQLQQSGPEVGRPGSSVKISCKASGYTFTDYIMHWVKQSPGQGLEWIGWVDPEYGSTDYAEKFKKKATLTADTSSNTAYIQLSSLTSEDTATYFCARDDGSYSPFDYWGQGVMVTVSS
